In patent US20220195059A1, “Rank Pathway Inhibitors in Combination with CDK Inhibitors” (INSTITUTO DE MEDICINA MOLECULAR JOÃO LOBO ANTUNES, priority 2019, published 2022):

Columns and labels:
[1] = test system: phosphorylation of IkBα, NFkB, ERK and AKT in MCF-7 OE and T47D OE cells; assay: RANK signalling after sRANKL stimulation of RANK OE cells, western blot; assay type: cell-based, human; conditions: 1 μg/mL sRANKL
Protocol: FIG. 1C provides data that show the activation of RANK signaling pathway. After 24 h in low-serum medium, MCF-7 and T47D cells, or their RANK-overexpressing counterparts MCF-7^OE and T47D^OE, were stimulated with 1 μg/mL soluble RANK ligand (sRANKL) for 0, 5, 10, 20, 40, or 60 min (top panel) or 0, 5, 10, or 25 min (bottom panel). Cell lysates were western blotted using the antibody specific for the indicated protein (IκBα; NK-κB p65; ERK1/2; AKT), or for a phosphorylated version thereof (p-IκBα (Ser32); p-NK-κB p65 (Ser536); p-ERK1/2; p-AKT). β-Actin was used as loading control.
(§1) For this purpose, 4×10^5 cells were seeded in 6-well plates for 24 h, and serum-starved in low-serum medium (0,1% FBS, 1% Pen/Step) for another 24 h. […] Total protein was quantified using Pierce BCA Protein Assay Kit (ThermoSicentific), according to manufacturer's instructions. […]
Membranes were blocked for 1 h at room temperature (RT) in 5% Non-Fat Dry Milk (NFDM) in PBS-0.1% Tween (PBST) for β-actin; or in 5% bovine serum albumin (BSA) (Santa Cruz) for other antibodies. […] Proteins were detected using a Novex® ECL HRP chemiluminescent substrate reagent kit (Invitrogen) according to the manufacturer's instructions, and x-ray films (Fujifilm) developed in a Curix 60 processor (AGFA), or the Amersham™ Imager 680 (GE Healthcare Life Sciences). […]

[2] = test system: RANKL-driven RANK pathway activation (ERK, AKT phosphorylation); assay: RANKL stimulation and RANKL neutralization, western blot; assay type: cell-based, human; conditions: 1 μg/ml RANKL; serum starved cells
Protocol: It was also confirmed that OPG-Fc is able to neutralize RANKL. Protein expression was assessed by western blot. Cells were seeded in 6-well plates, serum starved for 24 h, and exposed to 1 μg/ml RANKL for the indicated time points (FIG. 26A). For RANKL neutralization (FIG. 26B), RANKL was previously incubated for 60 min at 37° C. in serum-depleted medium±100 ng/ml OPG-Fc or 2.5 μg/ml MAB626, and proteins analyzed after 60 min. β-Actin was used as loading control and band intensity was quantified using FiJi. […] In the presence of OPG-Fc or the anti-RANKL monoclonal antibody MAB626, RANKL-driven RANK pathway activation was decreased (FIG. 26B).
as §1
Membranes were blocked for 1 h at room temperature (RT) in 5% Non-Fat Dry Milk (NFDM) in PBS-0.1% Tween (PBST) for β-actin; or in 5% bovine serum albumin (BSA) (Santa Cruz) for other antibodies. […] Proteins were detected using a Novex® ECL HRP chemiluminescent substrate reagent kit (Invitrogen) according to the manufacturer's instructions, and x-ray films (Fujifilm) developed in a Curix 60 processor (AGFA), or the Amersham™ Imager 680 (GE Healthcare Life Sciences).

MCF-7 RANK OE xenografts = assay: MCF-7^OE orthotopic xenograft growth with exogenous sRANKL; assay type: in vivo, NSG mice; conditions: human sRANKL 0.5 mg/every 48 h s.c. vs vehicle; eight weeks
Protocol: Nod scid gamma (NSG) mice were inoculated in the 2nd thoracic mammary fat pad with MCF-7 RANK OE GFP+Luc+ (RANK OE) cells (n=3-4/group). Mice were treated with human sRANKL 0.5 mg/every 48 h s.c. or vehicle (PBS). Tumors were imaged by bioluminescence every week post tumor inoculation untill the end of the experience (eight weeks). FIG. 10A is a graph of the total flux (p/s) measured at the end of experiment. FIG. 10B is a graph of tumor weight at the time of sacrifice for tumors derived from MCF-7 OE cells taken from mice treated with (+) or without (−) sRANKL. FIG. 10C is a graph of the Ki67-positive stained cells from tumors derived from MCF-7 OE cells taken from mice treated with (+) or without (−) sRANKL. Data is presented as mean±SEM. p-value was calculated using 2-way ANOVA or unpaired t-test, *p<0.05, **p<0.01, ***p<0.001.
Tumor growth was monitored weekly by luminescence analysis.
To determine whether the decreased proliferation rate was due to RANKL availability, NSG mice were inoculated with one of Parental, RANK OE, or Mix cells, as described above, and treated with human soluble RANKL or vehicle control subcutaneously.

B1: sRANKL: soluble RANK ligand used as stimulus (protein)
chain: EKAMVDGSWLDLAKRSKLEAQPFAHLTINATDIPSGSHKVSLSSWYHDRGWAKISNMTFSNGKLIVNQDGFYYLYANICFRHHETSGDLATEYLQLMVYVTKTSIKIPSSHTLMKGGSTKYWSGNSEFHFYSINVGGFFKLRSGEEISIEVSNPSLLDPDQDATYFGAFKVRDID
For B1, the “RANK pathway activity after stimulation” value [1] was “increased RANK pathway activity”, the “phosphorylation of RANK-downstream factors, like ERK and AKT” value [2] was “drives the phosphorylation” and the tumor growth (MCF-7 RANK OE xenografts) was “did not affect”.
